According to patent US20250327097A1, “ORGANISMS PRODUCING LESS CROTONIC ACID” (Global Bioenergies, priority 2021, published 2025):

System: 3-methylcrotonic acid
Type: biochemical, Yersinia frederiksenii
Set-up: key: “+” representing a low increase in activity; “++++” representing a high increase in activity

Molecule | Activity relative to WT
I283T-N285P-N287T-Q290E-S322T-N388M-K394R-E421W-C430A-L432F-L434W-S436N-dG462 (protein) MFLKSLREQINLLKRQGDLRIINRPVDSYLEAAAIIRRSTETKAPVPLMTNIKGYPGCSIVGGLAALSSNPEYPLSRVAMSLGLSTTASAQSIVQYLIDGLKKTPYLPVEIDSNSAPCKQNILRGEDASLAHFPIPQVHQHDGNRYVNTWGVFIVESPDGQWCNWSIQRVQYLNDRQMIALVFPSQHISDIWEEWVKIGKPMPYALVQGCEPIVPYIAGLPLLERNVNEAEYIGALYGKGIEVVKCETHDLRVPASSEVVIEGYFAITREGVEGPFGEFAGYTPPETSLEPILSITAISWQDDPIWPVVAEGKPVDEYHTCTGIGDAAAIQNVLLTANLPVSFVWVPLYSACHLMIVSINRHWRQTHPDLTSEQLTKKVGDVIHQTRMSIKLPRIVVLDDDVDPADTESLLWALATRIHPWRKRYFYESAIFPWLNCYSEEERHNRKGKRVIIDALLPENHGAISSFDYAYPDDIKQRVLMHWETDFSHD | ++++
I283T-N285P-N287T-Q290E-S322T-N388M-K394R-H419P-C430A-L432F-L434W-S436N-dG462 (protein) MFLKSLREQINLLKRQGDLRIINRPVDSYLEAAAIIRRSTETKAPVPLMTNIKGYPGCSIVGGLAALSSNPEYPLSRVAMSLGLSTTASAQSIVQYLIDGLKKTPYLPVEIDSNSAPCKQNILRGEDASLAHFPIPQVHQHDGNRYVNTWGVFIVESPDGQWCNWSIQRVQYLNDRQMIALVFPSQHISDIWEEWVKIGKPMPYALVQGCEPIVPYIAGLPLLERNVNEAEYIGALYGKGIEVVKCETHDLRVPASSEVVIEGYFAITREGVEGPFGEFAGYTPPETSLEPILSITAISWQDDPIWPVVAEGKPVDEYHTCTGIGDAAAIQNVLLTANLPVSFVWVPLYSACHLMIVSINRHWRQTHPDLTSEQLTKKVGDVIHQTRMSIKLPRIVVLDDDVDPADTESLLWALATRIPPERKRYFYESAIFPWLNCYSEEERHNRKGKRVIIDALLPENHGAISSFDYAYPDDIKQRVLMHWETDFSHD | ++++
I283T-N285P-N287T-Q290E-S322T-N388M-K394H-C430A-L432F-L434W-S436N-dG462 (protein) MFLKSLREQINLLKRQGDLRIINRPVDSYLEAAAIIRRSTETKAPVPLMTNIKGYPGCSIVGGLAALSSNPEYPLSRVAMSLGLSTTASAQSIVQYLIDGLKKTPYLPVEIDSNSAPCKQNILRGEDASLAHFPIPQVHQHDGNRYVNTWGVFIVESPDGQWCNWSIQRVQYLNDRQMIALVFPSQHISDIWEEWVKIGKPMPYALVQGCEPIVPYIAGLPLLERNVNEAEYIGALYGKGIEVVKCETHDLRVPASSEVVIEGYFAITREGVEGPFGEFAGYTPPETSLEPILSITAISWQDDPIWPVVAEGKPVDEYHTCTGIGDAAAIQNVLLTANLPVSFVWVPLYSACHLMIVSINRHWRQTHPDLTSEQLTKKVGDVIHQTRMSIKLPHIVVLDDDVDPADTESLLWALATRIHPERKRYFYESAIFPWLNCYSEEERHNRKGKRVIIDALLPENHGAISSFDYAYPDDIKQRVLMHWETDFSHD | ++++
I283T-N285P-N287T-Q290E-S322T-N388S-K394R-C430A-L432F-L434W-S436N-dG462 (protein) MFLKSLREQINLLKRQGDLRIINRPVDSYLEAAAIIRRSTETKAPVPLMTNIKGYPGCSIVGGLAALSSNPEYPLSRVAMSLGLSTTASAQSIVQYLIDGLKKTPYLPVEIDSNSAPCKQNILRGEDASLAHFPIPQVHQHDGNRYVNTWGVFIVESPDGQWCNWSIQRVQYLNDRQMIALVFPSQHISDIWEEWVKIGKPMPYALVQGCEPIVPYIAGLPLLERNVNEAEYIGALYGKGIEVVKCETHDLRVPASSEVVIEGYFAITREGVEGPFGEFAGYTPPETSLEPILSITAISWQDDPIWPVVAEGKPVDEYHTCTGIGDAAAIQNVLLTANLPVSFVWVPLYSACHLMIVSINRHWRQTHPDLTSEQLTKKVGDVIHQTRSSIKLPRIVVLDDDVDPADTESLLWALATRIHPERKRYFYESAIFPWLNCYSEEERHNRKGKRVIIDALLPENHGAISSFDYAYPDDIKQRVLMHWETDFSHD | ++++
